T1: TPP-1984 (hTNFRSF12Aaa28-68-CT-His) (human)
T1 construct: monomeric ectodomain with HIS6 tag; also called TWEAKR(28-68)-HIS; C-terminally truncated TWEAKR ectodomain
T1 chain: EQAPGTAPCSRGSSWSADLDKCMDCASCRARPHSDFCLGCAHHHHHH

B1: P4A8(TPP-1324) (antibody, human IgG1, kappa, V domains shown)
VH: QVQLVQSGAEVKKPGASVKVSCKGSGYTFTDYGMHWVRQAPGQGLEWMGVISTYNGYTNYNQKFKGRVTMTVDKSTSTAYMELRSLRSDDTAVYYCARAYYGNLYYAMDYWGQGTLVTVSS
VL: DIVLTQSPASLAVSLGQRATISCRASKSVSTSSYSYMHWYQQKPGQPPKLLIKYASNLESGVPARFSGSGSGTDFSLNIHPMEEDDTAMYFCQHSRELPFTFGGGTKLEIKR
notes: Human IgG1; variable domains from WO2009/140177 with constant region added
B2: TPP-2090 (antibody, human IgG1, kappa, V domains shown)
VH: EVQLLESGGGLVQPGGSLRLSCAASGFTFSPYPMIWVRQAPGKGLEWVSYISPSGGSTHYADSVKGRFTISRDNSKNTLYLQMNSLRAEDTAVYYCARGGDTYFDYFDYWGQGTLVTVSS
VL: DIQMTQSPSSLSASVGDRVTITCRASQSISGYLNWYQQKPGKAPKLLIYQASSLQSGVPSRFSGSGSGTDFTLTISSLQPEDFATYYCQQSYTSPFITFGQGTKVEIKR
notes: Human IgG1

Tests used:
[1] = target: T2, TWEAKR (TNFRSF12A, FN14), human, on tumor cell lines (human, UniProt Q9NP84 28-129); test: cell-based or functional assay
[2] = target: T2, TWEAKR (TNFRSF12A, FN14), human, on …; test: cell-based or functional assay; remark: listed apart in the source
[3] = target: T2, TWEAKR (TNFRSF12A, FN14), human, on …; test: cell-based or functional assay; remark: listed apart in the source
[4] = target: T2, TWEAKR (TNFRSF12A, FN14), human, on …; test: FACS, A375 cells, 10 ug/ml
Method: (§1) To determine the binding characteristics of the anti-TWEAKR antibodies on mouse and human cancer cell lines, binding was tested by flow cytometry to a panel of cell lines. […] Cells were suspended at approximately 10⁵ cells/well in FACS buffer (PBS without Ca/Mg, containing 3% FCS, Biochrom). Cells were centrifuged (250 g, 5 min, 4° C.) and supernatant discarded. Cells were resuspended in dilutions of the antibodies of interest (10 μg/ml in 80 μl if not indicated otherwise) in FACS buffer, and incubated on ice for 1 h. […] After incubation for 1 h on ice cells were again washed with cold FACS buffer, resuspended in 1000 FACS buffer and analyzed by flow cytometry using a FACS-Array (BD Biosciences). Results are calculated as Geo Mean of fluorescence detected by the antibody of interest subtracted by background fluorescence as measured by detection with the secondary antibody alone. Values are scored according to the following system: Geo Mean−Geo Mean of secondary antibody alone >10: +, >100: ++, >1000: +++, 10000: ++++, close to category border in ( ).

[5] = target: T2, TWEAKR (TNFRSF12A, FN14), human, on …; test: FACS, HT29 cells, 10 ug/ml
Method: as §1

[6] = target: T2, TWEAKR (TNFRSF12A, FN14), human, on …; test: FACS, WiDr cells, 10 ug/ml
Method: as §1

[7] = target: T2, TWEAKR (TNFRSF12A, FN14), human, on …; test: FACS, 786-O cells, 10 ug/ml
Method: as §1

[8] = target: T2, TWEAKR (TNFRSF12A, FN14), human, on …; test: FACS, SKOV-3 cells, 10 ug/ml
Method: as §1

[9] = target: T2, TWEAKR (TNFRSF12A, FN14), human, on …; test: FACS, NCI-H322 cells, 10 ug/ml
Method: as §1

[10] = target: TPP-2610 (TweakR-ECD-34-68-hIgGFc-His-S41A) (human); test: ELISA, IgG coated 1 ug/ml, HEK293 supernatant titrated
Method: These TWEAKR(34-68)-Fc muteins were expressed in HEK293 cells. To collect dose-response data, IgGs were coated at a concentration of 1 μg/ml in a 384-well Maxisorp ELISA plate and a serial 2fold dilution of the TWEAKR mutein containing supernatant was used as soluble binding partner. Detection was done with anti-HIS-HRP and Amplex Red.

[11] = target: T3, TPP-2305 (hTNFRSF12Aaa28-80) (Human, UniProt Q9NP84 28-80); test: SPR (Biacore T100), IgG captured, TPP-2305 injected, 1:1 model
T3 construct: monomeric extracellular domain, bought; also called purified recombinant human TWEAKR protein; soluble monomeric TWEAKR
Method: Binding affinities of anti-TWEAKR antibodies were determined by surface plasmon resonance analysis on a Biacore T100 instrument (GE Healthcare Biacore, Inc.). Antibodies were immobilized onto a CM5 sensor chip through an indirect capturing reagent, anti-human IgG(Fc). […] Anti-TWEAKR antibodies were injected at a concentration of 10 μg/ml at 10 μl/min for 10 sec.
Sensorgrams were generated after in-line reference cell correction followed by buffer sample subtraction. The dissociation equilibrium constant (KD) was calculated based on the ratio of association (kₒₙ) and dissociation rated (koff) constants, obtained by fitting sensorgrams with a first order 1:1 binding model.

[12] = target: T4, TPP-599 (HUMAN-TNFRSF12Aaa28-80-hIgG1-Fc) (human); test: ELISA, TWEAKR-Fc coated 62 ng/ml, biotin-IgG titrated; + means IC50 1 to 150 pM;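 further: biotinylated IgG binding to immobilized TWEAKR-Fc muteins, detected with Streptavidin-HRP and Amplex Red, IC50 derived from fitted dose-response curves of twofold serial dilutions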
T4 construct: dimeric; also called human TWEAKR Fc; TWEAKR-Fc
Method: (§2) To collect dose-response data, the different TWEAKR-Fc muteins were coated with a low concentration (62 ng/ml) in a 384-well Maxisorb ELISA plate and a serial 2fold dilution of biotinylated IgG starting with a concentration of 100 nM was used as soluble binding partner. Detection was done with Streptavidin-HRP and Amplex Red.
(§3) The dose-response data were fitted and IC50s determined.

[13] = target: TPP-1986 (hTNFRSF12Aaa28-80-T33Q-hIgG1-Fc) (human); test: as above
Method: as §2, §3

[14] = target: TPP-1987 (hTNFRSF12Aaa28-80-S40R-hIgG1-Fc) (human); test: as above
Method: as §2, §3

[15] = target: TPP-1988 (hTNFRSF12Aaa28-80-M50A-hIgG1-Fc) (human); test: as above
Method: as §2, §3

[16] = target: TPP-2683 (hTNFRSF12Aaa28-80-R56P-hIgG1-Fc) (human); test: as above
Method: as §2, §3

[17] = target: TPP-1989 (hTNFRSF12Aaa28-80-H60K-hIgG1-Fc) (human); test: as above
Method: as §2, §3

[18] = target: TPP-1990 (hTNFRSF12Aaa28-80-L65Q-hIgG1-Fc) (human); test: as above
Method: as §2, §3

[19] = target: T5, TPP-2202 (TWEAKR-ECD-28-80-hIgGFc-His) (human); test: ELISA, TPP-2202 coated at 1 µg/ml, biotinylated IgG at 0.08 µg/ml (open bar) and 0.3 µg/ml (filled bar), Streptavidin-HRP, Amplex Red
T5 construct: dimeric; also called TWEAKR-Fc fusion protein; full ectodomain 28-80
T5 sequence (chain, as listed by the source limits assumed): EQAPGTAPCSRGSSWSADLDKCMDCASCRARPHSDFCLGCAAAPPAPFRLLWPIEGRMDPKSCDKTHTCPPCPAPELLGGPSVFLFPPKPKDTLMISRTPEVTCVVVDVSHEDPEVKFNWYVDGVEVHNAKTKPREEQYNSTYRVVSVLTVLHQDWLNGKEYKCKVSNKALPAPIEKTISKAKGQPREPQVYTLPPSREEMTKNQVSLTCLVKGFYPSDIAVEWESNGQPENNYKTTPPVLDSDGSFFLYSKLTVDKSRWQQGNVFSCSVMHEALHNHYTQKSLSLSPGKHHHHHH
Method: (§4) Detection was done with Streptavidin-HRP and Amplex-Red substrate.
(§5) To analyze for binding, 1 μg/ml of the respective dimeric TWEAKR-Fc construct were coated and, 0.3 μg/ml and 0.08 μg/ml of biotinylated IgG were used as soluble binding partner. Detection was done with Streptavidin-HRP and Amplex-Red substrate.

[20] = target: T6, TPP-2614 (TweakR-ECD-34-68-hIgGFc-His-D47A) (human); test: ELISA, IgG coated 1 ug/ml, TWEAKR variant 250 ng/ml, anti-HIS HRP (FIG. 6C)
T6 construct: also called D47A TWEAKR mutein
Method: Antibodies were coated (1 μg/ml), TWEAKR variant was added at 250 ng/ml, detection via anti-HIS HRP. […] Antibodies were coated (1 μg/ml), TWEAKR variant was added 250 ng/ml, detection via anti-HIS HRP.

[21] = target: T7, TPP-2203 (TWEAKR-ECD-34-68-hIgGFc-His) (human); test: ELISA, TPP-2203 coated at 1 µg/ml, biotinylated IgG at 0.08 µg/ml (open bar) and 0.3 µg/ml (filled bar), Streptavidin-HRP, Amplex Red
T7 construct: dimeric; also called TWEAKR(34-68)-Fc fusion protein; truncated ectodomain 34-68
Method: as §4, §5

[22] = target: T1, TPP-1984 (hTNFRSF12Aaa28-68-CT-His); test: ELISA, TPP-1984 coated at 1 µg/ml, biotinylated IgG at 0.08 µg/ml (open bar) and 0.3 µg/ml (filled bar), Streptavidin-HRP, Amplex Red
Method: as §4, §5

Binder | IL-8 release from A375 cells at 100 ug/ml, % of the activation by 300 ng/ml TWEAK ligand [1] | % Inhibition of proliferation, 786-O cells, 96h, 100 ug/ml [3] | % Inhibition of proliferation, A253 cells, 72h, 100 ug/ml [3] | % Inhibition of proliferation, HT-29 cells, 24h, 100 ug/ml [3] | GeoMean of Fluorescence minus GeoMean with the secondary antibody only [4] | GeoMean of Fluorescence minus GeoMean with the secondary antibody only [5] | GeoMean of Fluorescence minus GeoMean with the secondary antibody only [6] | GeoMean of Fluorescence minus GeoMean with the secondary antibody only [7] | GeoMean of Fluorescence minus GeoMean with the secondary antibody only [8] | GeoMean of Fluorescence minus GeoMean with the secondary antibody only [9] | Kd [11] | binding result [13] | binding result [14] | binding result [15] | binding result [16] | binding result [17] | binding result [18] | binding result [19] | also measured
B1 | 29% | 29% | 37% | -10% | 1580 | 3670 | 5920 | 30200 | 5970 | 978 | 2.3 nM | binds | binds | binds | binds | binds | binds | binds | Fold induction of Caspase 3/7, 786-O cells, 100 ug/ml [2]: 1.1 fold; Fold induction of Caspase 3/7, A253 cells, 100 ug/ml [2]: 1.38 fold; Fold induction of Caspase 3/7, HT-29 cells, 100 ug/ml [2]: 1.49 fold; Fold induction of Caspase 3/7, NCI-H322 cells, 100 ug/ml [2]: 1.02 fold; Fold induction of Caspase 3/7, WiDr cells, 100 ug/ml [2]: 1.12 fold; % Inhibition of proliferation, WiDr cells, 96h, 100 ug/ml [3]: 4%; binding result [10]: no binding; koff [11]: 0.0027 s⁻¹; kon [11]: 1.2e+06 M⁻¹ s⁻¹; binding result [12]: binds
B2 | 103% | 71% | 99% | > 100% | 561 | 1420 | 2420 | 20300 | 2870 | 291 | 12.4 nM | binds | binds | binds | binds | binds | binds | binds | % binding normalized by wt binding signal [20]: < 5%; binding result [21]: binds; binding result [22]: binds
